Series [1] has as its target T1, IL-23 (human, p19/p40 heterodimer) (Homo sapiens) (UniProt Q9NPF7+P29460). The series is described as follows: cell_activity. As to conditions: 2'-F C and U, 2'-OH A and G; TransAM STAT3, PHA blasts.
The target in series [2] is T1, IL-23 (human, p19/p40 heterodimer) (Homo sapiens). The series is described as follows: filter. The settings on record: 2'-F C,U; SHMCK, tRNA.
The target in series [3] is T2, IL-23 (mouse, p19/p40 heterodimer) (Mus musculus) (UniProt Q9EQ14+P43432).
T2 sequence 1: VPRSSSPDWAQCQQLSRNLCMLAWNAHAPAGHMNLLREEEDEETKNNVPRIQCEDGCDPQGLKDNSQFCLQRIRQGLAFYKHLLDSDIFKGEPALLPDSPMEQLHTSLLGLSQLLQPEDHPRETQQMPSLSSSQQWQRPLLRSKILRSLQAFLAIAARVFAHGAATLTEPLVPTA
T2 sequence 2: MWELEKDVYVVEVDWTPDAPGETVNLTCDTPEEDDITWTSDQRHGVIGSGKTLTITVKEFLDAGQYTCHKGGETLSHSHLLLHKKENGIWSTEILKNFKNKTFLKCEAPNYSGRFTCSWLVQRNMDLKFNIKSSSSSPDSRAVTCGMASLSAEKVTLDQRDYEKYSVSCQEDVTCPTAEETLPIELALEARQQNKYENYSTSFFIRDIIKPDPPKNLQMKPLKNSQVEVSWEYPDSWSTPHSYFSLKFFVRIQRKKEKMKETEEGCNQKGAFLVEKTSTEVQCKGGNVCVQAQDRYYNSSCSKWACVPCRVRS
Nature of the series: filter. As to conditions: 2'-F all C and U (rRfY); 1X PBS, 0.1 mg/mL BSA, 30 min RT.

Series [4] addresses T3, IL-12 (mouse, p35/p40 heterodimer) (Mus musculus) (UniProt P43431+P43432).
T3 sequence 1: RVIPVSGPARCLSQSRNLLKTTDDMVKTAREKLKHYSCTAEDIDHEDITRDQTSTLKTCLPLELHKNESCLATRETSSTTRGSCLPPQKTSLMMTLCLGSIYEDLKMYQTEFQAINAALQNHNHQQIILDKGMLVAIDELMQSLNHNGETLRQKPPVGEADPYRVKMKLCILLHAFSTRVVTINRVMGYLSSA
T3 sequence 2: T2 sequence 2
The series is described as follows: filter. As to conditions: 2'-F all C and U (rRfY); 1X PBS, 0.1 mg/mL BSA, 30 min RT.

The record followed here is patent US20060193821.

pIC50, pKd: −log10 of the molar value. Bounds are passed on as bounds.

T1 sequence (Q9NPF7 20-189, chain 1 of 2): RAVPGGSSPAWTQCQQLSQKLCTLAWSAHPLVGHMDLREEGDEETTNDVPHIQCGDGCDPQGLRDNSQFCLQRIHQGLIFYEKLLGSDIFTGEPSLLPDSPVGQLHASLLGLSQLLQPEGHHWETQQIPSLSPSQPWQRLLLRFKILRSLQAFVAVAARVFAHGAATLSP
T1 sequence (P29460 23-328, chain 2 of 2): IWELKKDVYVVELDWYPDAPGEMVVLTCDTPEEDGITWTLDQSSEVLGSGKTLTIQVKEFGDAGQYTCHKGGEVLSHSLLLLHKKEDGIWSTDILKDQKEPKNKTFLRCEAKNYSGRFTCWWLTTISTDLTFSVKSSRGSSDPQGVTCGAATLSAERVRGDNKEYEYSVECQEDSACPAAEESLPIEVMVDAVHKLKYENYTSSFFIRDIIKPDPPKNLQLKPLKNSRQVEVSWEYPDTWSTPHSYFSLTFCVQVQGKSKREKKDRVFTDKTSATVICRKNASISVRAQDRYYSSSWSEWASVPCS

“AGGGAAAAGGAAUCAUACACAAGAUGUAUCAUCCGGUCGUACAAAAGCGCCACGGAACCAUUCGCUCCGCCAGANACCAACCGAGAA [ARX33-plate1-H01]”: the negative logarithm of the IC50 (pIC50) (in general, the negative decadic logarithm of the IC50, by convention in mol/L) in series [1] was below 5.30. Besides, the pKd – broadly, −log10 of the Kd, conventionally taken in molar units – in series [2] was 7.11.

Regarding “GGAGCGCACUCAGCCACGGUUUACUUCCGUGGCAAUAUUGACCUCNCUCUAGACAGGUUUCGACCUCUCUGCUAGC [AMX369.F1]”, the pKd in series [3] was 7.20; in series [4], 6.78.

For “GGAGCGCACUCAGCCACUGGGGAACAUCUCAUGUCUCUGACCGCUCUUGCAGUAGAAUUUNGACCUCUCUGCUAGC [AMX369.G3]”, the pKd in series [3] is 6.97; in series [4] it was 6.58.

On to “GGAGCGCACUCNGCCACUUCGGAAUAUCGUUGUCUUCUGGGUGAGCAUGCGUUGAGGUUUCNACCUCUCUGCUAGC [AMX369.B2]”, for which the pKd in series [3] is 7.31; in series [4], 6.60.
